Assay results: publication PMC2190426
Like-named read-outs stand apart in the source and are kept apart here.

Tests used:
[1] = biological target: cell-bound C3b on sheep erythrocytes (EAC4b,3b, called EC3b) (human) (UniProt P01024); experiment: radioligand binding
[2] = biological target: cell-bound C3b on sheep erythrocytes (EAC4b,3b, called EC3b) (human) (UniProt P01024); experiment: radioligand binding; remark: listed apart in the source

UniProt P01024, sequence (P01024 23-667, chain 1 of 2): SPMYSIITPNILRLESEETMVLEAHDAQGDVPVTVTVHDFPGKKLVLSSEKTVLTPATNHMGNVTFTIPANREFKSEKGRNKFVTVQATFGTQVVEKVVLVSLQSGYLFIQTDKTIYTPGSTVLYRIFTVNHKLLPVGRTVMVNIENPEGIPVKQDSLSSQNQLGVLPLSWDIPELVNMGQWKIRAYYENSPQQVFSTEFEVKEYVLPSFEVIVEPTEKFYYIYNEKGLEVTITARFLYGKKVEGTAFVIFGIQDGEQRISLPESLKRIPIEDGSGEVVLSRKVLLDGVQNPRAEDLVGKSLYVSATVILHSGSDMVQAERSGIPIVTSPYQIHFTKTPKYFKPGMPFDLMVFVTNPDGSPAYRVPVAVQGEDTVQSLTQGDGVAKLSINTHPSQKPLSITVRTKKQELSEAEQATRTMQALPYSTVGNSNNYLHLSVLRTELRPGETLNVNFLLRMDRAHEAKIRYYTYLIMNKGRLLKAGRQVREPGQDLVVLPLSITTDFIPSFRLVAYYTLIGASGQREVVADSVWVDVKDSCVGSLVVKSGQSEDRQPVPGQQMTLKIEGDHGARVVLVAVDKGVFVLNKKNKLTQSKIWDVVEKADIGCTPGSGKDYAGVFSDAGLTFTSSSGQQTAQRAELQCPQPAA
UniProt P01024, sequence (P01024 749-1663, chain 2 of 2): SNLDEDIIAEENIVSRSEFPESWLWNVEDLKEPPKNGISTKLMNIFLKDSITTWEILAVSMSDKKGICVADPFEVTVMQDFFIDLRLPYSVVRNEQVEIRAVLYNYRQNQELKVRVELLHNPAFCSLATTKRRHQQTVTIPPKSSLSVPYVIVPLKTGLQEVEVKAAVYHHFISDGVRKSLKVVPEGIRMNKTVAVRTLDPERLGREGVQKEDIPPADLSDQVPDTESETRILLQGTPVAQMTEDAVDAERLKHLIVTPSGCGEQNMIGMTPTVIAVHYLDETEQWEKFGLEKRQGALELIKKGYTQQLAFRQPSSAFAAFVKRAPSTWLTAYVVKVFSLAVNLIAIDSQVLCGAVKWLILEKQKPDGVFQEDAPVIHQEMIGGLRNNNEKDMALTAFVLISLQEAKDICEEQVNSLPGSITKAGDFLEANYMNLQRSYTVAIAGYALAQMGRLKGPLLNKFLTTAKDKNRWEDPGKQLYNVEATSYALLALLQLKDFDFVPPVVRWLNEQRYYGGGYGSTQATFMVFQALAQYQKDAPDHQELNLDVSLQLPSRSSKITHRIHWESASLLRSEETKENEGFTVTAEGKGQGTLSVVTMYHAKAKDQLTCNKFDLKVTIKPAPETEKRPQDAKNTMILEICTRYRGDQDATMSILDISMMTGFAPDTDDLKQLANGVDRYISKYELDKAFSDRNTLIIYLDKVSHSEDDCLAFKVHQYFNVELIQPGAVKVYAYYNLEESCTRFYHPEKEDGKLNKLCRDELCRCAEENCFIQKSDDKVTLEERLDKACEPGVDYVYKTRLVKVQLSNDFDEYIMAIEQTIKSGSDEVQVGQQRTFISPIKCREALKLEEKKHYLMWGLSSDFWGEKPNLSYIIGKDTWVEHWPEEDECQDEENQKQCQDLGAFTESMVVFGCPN

percent of input taken up [1] [%] | stoichiometry N (molecules P per molecule C3b) [1] | uptake (cpm) [2] [cpm] | uptake (cpm) [1] [cpm] | Substance
< 1 | < 10 |  |  | activated properdin (P) (from UniProt P27918 28-469) (natural protein)
 |  | 10700 | 378 | precursor properdin (pre-P) (from UniProt P27918 28-469) (natural protein)
